Target: T1, Recombinant M. hyorhinis enolase, wild-type (Mycoplasma hyorhinis (strain HUB-1), UniProt P0DXB0 1-450)
T1 construct: enolase of Mycoplasma hyorhinis strain HUB-1, full-length gene MHR_0469 of GenBank CP002170.1, codon-optimized and synthesized; the C-terminal residues are K451 and K452; also called rEno; rEno WT
Assay: SPR; plasminogen or fibronectin immobilised on CM5 chips by amine coupling (600 RU); recombinant enolase proteins 0-4000 nM injected at 30 uL/min for 180 s, 20 °C, dissociation 1000 s; 10 mM HEPES, 150 mM NaCl, 3 mM EDTA, 0.05% surfactant P20; Biacore X100
Conditions: both partners purified

B1: plasminogen (natural protein)
chain: EPLDDYVNTQGASLFSVTKKQLGAGSIEECAAKCEEDEEFTCRAFQYHSKEQQCVIMAENRKSSIIIRMRDVVLFEKKVYLSECKTGNGKNYRGTMSKTKNGITCQKWSSTSPHRPRFSPATHPSEGLEENYCRNPDNDPQGPWCYTTDPEKRYDYCDILECEEECMHCSGENYDGKISKTMSGLECQAWDSQSPHAHGYIPSKFPNKNLKKNYCRNPDRELRPWCFTTDPNKRWELCDIPRCTTPPPSSGPTYQCLKGTGENYRGNVAVTVSGHTCQHWSAQTPHTHNRTPENFPCKNLDENYCRNPDGKRAPWCHTTNSQVRWEYCKIPSCDSSPVSTEQLAPTAPPELTPVVQDCYHGDGQSYRGTSSTTTTGKKCQSWSSMTPHRHQKTPENYPNAGLTMNYCRNPDADKGPWCFTTDPSVRWEYCNLKKCSGTEASVVAPPPVVLLPDVETPSEEDCMFGNGKGYRGKRATTVTGTPCQDWAAQEPHRHSIFTPETNPRAGLEKNYCRNPDGDVGGPWCYTTNPRKLYDYCDVPQCAAPSFDCGKPQVEPKKCPGRVVGGCVAHPHSWPWQVSLRTRFGMHFCGGTLISPEWVLTAAHCLEKSPRPSSYKVILGAHQEVNLEPHVQEIEVSRLFLEPTRKDIALLKLSSPAVITDKVIPACLPSPNYVVADRTECFITGWGETQGTFGAGLLKEAQLPVIENKVCNRYEFLNGRVQSTELCAGHLAGGTDSCQGDSGGPLVCFEKDKYILQGVTSWGLGCARPNKPGVYVRVSRFVTWIEGVMRNN
For B1, the Kd was 1.4 ± 0.07 nM.

— PMC8951703, “A multifunctional enolase mediates cytoadhesion and interaction with host plasminogen and fibronectin in Mycoplasma hyorhinis” (Veterinary Research, 2022)
